Data reported in paper PMC5112231.
Numbering of substitutions follows the chain as printed.

Columns and labels:
Assay in all cases: EMSA
Details in all cases: EMSA: binding buffer 100 mM Tris-HCl pH 8, 375 mM NaCl, 25 mM MgCl2, 5 mM DTT, 65% glycerol [sic]; about 1 nmol DNA in 20 ul, 25 C …
[1] = target: T1, Lrp wild type (Salmonella Typhimurium 14028s) (UniProt A0A0F6AZA3)
T1 sequence: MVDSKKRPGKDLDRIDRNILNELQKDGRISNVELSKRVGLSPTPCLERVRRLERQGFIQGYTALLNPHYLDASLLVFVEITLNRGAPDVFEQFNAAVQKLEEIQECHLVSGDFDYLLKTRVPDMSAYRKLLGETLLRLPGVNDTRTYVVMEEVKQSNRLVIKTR

[2] = target: T2, Lrp K36R K36R (Salmonella Typhimurium 14028s) (UniProt A0A0F6AZA3)
T2 sequence: T1 sequence with K36R

[3] = target: T3, Lrp K25Q K25Q (Salmonella Typhimurium 14028s) (UniProt A0A0F6AZA3)
T3 sequence: T1 sequence with K25Q

[4] = target: T4, Lrp K36Q K36Q (Salmonella Typhimurium 14028s) (UniProt A0A0F6AZA3)
T4 sequence: T1 sequence with K36Q

ACACAGTGGAGCAATAATAAAGAATGAGACCTCCCTGTTGACTGGCTATTTTGCGTAAGAGTAATAAATATGTGGAATATCCATTTCGCACCAACAAAAAAGAAATTTCTGATTAAGTAAAAACAATATGGATTATACCTGGTCTGATTTCTCGGAAAAGTCTTGCGAAATGCGAATTATGGATAGCGGGTAGGATATTCTG (double strand) [fimZ promoter]
binding [1]: binds
binding [2]: binds
binding [3]: binds
binding [4]: binds more weakly
